Experimental data: a protein production outcome set (Wang et al. 2014)

Test: label from the status in PepcDB records
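Note: failed if final PepcDB status was selected cloned or expressed and not failed if soluble or beyond.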

Sequence | protein production
MLIRPATTADFDALRAIELAAFETLRAAGAVSGSASASTDQQLQRYLDHGLLDVACDQSGEPIGFCGGYIAESFLHIGEMDVHPAWQRQGVGRRLLTALLEEARARKADGATLTTDRLVPFNAPFYASLGFRPLADDELPAKLREILDAEANMGLDPDRRIAMMLRF | failed
MLIVDTILKPDRFGGIGLFSATRLPKGSLIWIHNPIVDITVTPEQYEALAPTFQALLDKHAYPRDYKAYDGVIEYNADNARFMNHSSRPNTYQDDRRVFTARDVQPGEELTCNYLFFDPRCDVSWNEEPSMNLDAPTG | failed
MLKKIREEFGCIFARDPAAQSFFEILTVYPGVHAVLIHRFSHWLWNHGLHWPARVLSYLARWATGIEIHPGATLGRRLFIDHGMGVVIGETAVIGDDCTLYHGVTLGGTSWQKGKRHPTLGNGVVVGAGAKVLGPITVGDGARIGSNSVVLRTVPAGATVVGIPGHIINPDRRAQEAQRLAIASRLGFDAYGMTPDMPDPVAHAINHMLDHIQALDQQVAKLKEVLRERGIDLEEAPLPDLDDCQLDPGEPQVTVNSSRTGLEHHHHHH | not failed
MLKKLAGALRTLMSVPADNPRLLEAQYVALSRQLPLMYFVLLVNTWALAFTHRETAPVWLTLLVPVLLTVICGIRARKWLLTVNRPPPAAATILATLRGTNSLAGVIAAGFAAWSLSLYPYGGPYAQAHVAFFMGITVIVCIFCMMHLRPAALTTAVVVNTAFVIFFASTHNLIFIATAVNIVLVSIGMLIILHHQYRDFTSLVDVQVRTEQLSNENLLLANKDSLTGLPNRRQFFQTLDAAMSEALALRSKLAVGVLDLDGFKPVNDLYGHRTGDRLLMLVAERLNSVASNTVHVSRLGGDEFALVIKGDISNEALLALGKHLCDLMHESFELSDMPIQIGATLGMATFPASADNATQLFEFADYALYQGKNHNPGTTCLFSASHREQLHTDGVTEQALRRANLETEFHVMFQPIIESCTCETVAFEALARWNSPELGAVSPAHFIPIAERIGMINKLTAPLLTHALQMALSWPAPIRLSFNLSAHDCATWESVSTIVEIIENSGFDASRLDLEITETAVMQDIAQVQQAIAQFRQLGCGISLDDFGTGFSSLSQLHALALTKLKIDRSFVTGVHDNPASYKIVKSLVALSLDMSLGCVIEGVETQDELNALTSLGCTMVQGYFYSPPISFAETLAWLETPDHERAFGYAAACRI | failed
MLKKMLKSYDYSLIFAIVLLCGFGLVMVYSSSMITAVSRYGVSSNFFFMRQLFALIAGGALFILMALFPYKALAHQKFQKGILLVSVLALISLFVFGHVAGNAQSWFKIGGMSIQPGEFVKLVVILYLAAVYAKKQSYIDHLLTGVAPPVVMTLIICGLIAMQPDFGTAMIIGLIATCMILCSGFSGKTLVRLVILGGIVFILVSPIIYLNQDKILTEGRLARFESLEDPFKYANSSGLQVINSYYAISSGGIFGLGLGESIQKYGYLPESHTDFIMAVIAEELGIFGVLFVIFLLGFVVIKGFYIARKCEDPFGSLLAIGISSMIAIQSFINLGGVSGLIPITGVTLPFISYGGSSLVLLLGSMGILANISMFVKYSENKKKKEPLAPKGMKKKQLKKTVYL | failed
MLKLFAKYTSIGVLNTLIHWVVFGVCIYVAHTNQALANFAGFVVAVSFSFFANAKFTFKASTTTMRYMLYVGFMGTLSATVGWAADRCALPPMITLVTFSAISLVCGFVYSKFIVFRDAK | failed
MLKLTATKQTSQQRSLKMNTLTKLLAATMTLSAQAMAATPLTLDVYNADGNSFHVNATVVYGETEAMVVDTGFTKADALRIGAKVLDSGKTLKTIFISQADPDYYFGAEVLKQMFPQAEVIATPGVKAKIEQKLQGKLDFWAPKMGANAPVKPVLPTAYQGKTLEIDGQTIEIRGTEGELKHRPYLWIPANAAILGNVAVYGNVHLWMADAQTDSERKAWAEQLDEMAALKPKVVIPGHMTPGTAMDSSAITFSQKYLADFAKAKASSKNSAQLIEKMSKIYPDAGLPMALEIGAKVHTGEMKW | failed
MLKNHPKGLISASLTNMGERFGFYIMMGILLLFLQAKFGLSGKEASVIYSIFYASVYVLALVGGIIADSMKNYKGTILVGLIVMAAGYVMLGIPTPTQATGMTPWLIFTCAALAFISFGNGLFKGNLQALVGRMYDNDTYRDKRDSGFSLFYMFINVGAVFAPLVAVAIRNWWVQHNGFVYNADLPERCHQILNGTLPENAKAQVMEMIQAANNGTAVATEGLQEFALKYIQVFSTGFHYAFLAAVFFMAISFLIYIINKHQYPADQKANAVTEAHKDQKQEIKMAADEIRQRIIALCAVFGVVIFFWMSFHQNGVSLTQFAKDYIDLSSVKLDLGFTSIVGAEMFQSINPFFVVTLTPLLLFIFGFLKKRNMEPSTPKKIVIGMFIAALAFVVMAIGSMGLPTFEERNAGVEFTKVSPWLMVLTYMILTIAELFISPMGISFVSKVAPPHLQGIMQGLWLCATAVGNSLLFVGMILYESLSISATWIVFTCACALSMLVMLSMVKWLERVAK | failed
MLKQIRPLYLLLYLTPLMFDIILLYTYLDNGIIYWLDSNYPFSPLILLRKILFYYWNDPFFPGAPLFYSQDSLFMGIIIFLLYNIFHFSLELSEFIYLLLFIYLSQVGFVKLLNIIFEILEKRYSSYFTLIAGLLGGFIYSWGFYSYTPPILGVNYPFFIFYMLFPLVLYFSIKYIFKEKVISFSLIILYLILASGTLFSEFTYLLWSIVLYLFTVVPIWLLSRKPSFVQFTVKNLVIALIVIVAGLEQLYQTYNASIGAYQVGVHGEFLGKPIVIYETEAQYKNFPLSSFISLYSPEKYEIIGVLIFVLIFATILFIKGKTGKFFAPLLFLLLIIGGLSTGIINVLPLYSLHSTPIGFIAIGLMYSIQYIFSGFPVSFVSSLIIGYTLLYILEYLGKRRNYIKILFILIILLLSSSYIYSFRAGEVHPEIRAFNLPVNATNIFYPPPELVSVGNYLSVHDEFYNVIEFPMQYAAGMYDNNGTKAVWYTIYPLSDYIMGQVIKSPALANNAIIKSLANSAIYPIYKYFPAFNITNITNYFVLLGAKYIVLNKQEYPGPGVPLGYAGGYPWNYTKFIEALARTPNITLVMENSYYNVYMINLNVSLLYPSEGLAENLSSDQLFFLYANNMLKAQKQSVIYGLGAINITNISGVHIRVVNDYCNEVYEIQVNASRPFYLVFDEGYSPLWEVTINGEINTHHYIANGYANAWLMPAGNYVATLKLSILQTVHITYLLVFLGFIILVLIYVLQRFKIFRYFKNY | failed
MLKQRIITALLLVPVALYGVFMLPLWGFALFIQGVLMLGAWEWSPLMGVRRISARIAYTLFVGAIIGVLSWLAPYEHLWEGGELSKLIYYTILAGGVWWVVALAMIVNYPSSRRMWSRTRAIVGVFGLLIFIPTWAALVTVRSIDIDESRFFGGWVVLFILLLVWAADVGAYFAGVRYGRNKMMPAVSPGKTMEGLCGGVTLAFVVMMVVAHWTKVPADQFTGYYLTGLFTVVASVFGDLNESMFKRSAGVKDSGSILPGHGGILDRIDSLTAAVPIFTLAYLEFLH | failed
MLKQRVITAMWLLPLMLGMLFYAPQWLWAAFCGLIALIALWEYARMGGLCKIKTNHYLAATLVFGVVAYAGGWMLPNLVWYVVLAFWLAVMPLWLRFKWRLNGGWQVYAVGWLLVMPFWFALVSLRPHPDDALPLLAVMGLVWVADICAYFSGKAFGKHKIAPAISPGKSWEGAIGGAVCVAVYMTAVRSAGWLAFDTGWFDTVLIGLVLTVVSVCGDLLESWLKRAAGIKDSSKLLPGHGGVFDRTDSLIAVISVYAAMMSVLN | failed
MLKRLSVVHSPNGAPMAPSSHEWTDTLKDVYTARAANADLNARYIPLLPVNQRIQHERDRALANMLRQHLSVPPAQARVLEVGCGSGSNLLDLIRLGFDPANLMGNDLMDSRVEQARHRLPQAVPILAGNALDLDLEREGFDVLYQSTVFTSILDAQARRDLAQRMWHWTKPGGGVLWYDFAYNNPRNPNVRGVPLREVRALFPHARIHTARVTLAPPLARRLPATLYAPVNNLCPFLRTHLLCWIGKPAAP | failed
MLKRSIRLLTMGIIWFAISVANSTGRAEKSSDLERYLNTIQDPENIDKPFQPLQAGEYDQAYDYYIQGYYLKAFREALRRAEQNDPFAQTLVARIYMEGCAVPIDGARAALWFGRAAKQGEPQAQLRYGLMLFDGNFIAQNQEIGEEFIRKAVDAGVKEAYYYYGQLLLYKASREKQALAGVFSQSQENEAIDQALKWFLKGAALGDAAAAFAAAKILSLGTLTRPKDDRNARKLMEVAAQNKHLEAQILLAQWLVQGRGGETDFQRAFHLLLSNATKMIAPAQVALARLYRDGIGTKGDIVRAAAWYMLAKHAKIQAPDLEMMLEGMDHAQLEEARKEIIKLLPIF | failed
MLKRTFILIGLVLSFCSLPAQELIQITTRNTALVFRVANQSLRQVYYGPRLADTDVLQKQGNNFPAYSTYGMGEQNEVALHAVHADGNTSTLLNFENVKQESPEPGITLTTISLKDPLYPFQVKLFYKAYEESDLIEQWTIYQHTEKKPVTLYQFASAQLSFKSSSYRLTHFAGDWAGECNMSEVELTEGIKVIDSKLGTRATFFAHPMCLLSLNGRMTEDNGEVIGMALAWPANFKLEFEKNNNQELRVLAGMNPYASHYKLKKGDVFQTPSFLYTYSTKGNGQVSRNFHRWARKYGLRHGENSRYTLMNNWEATYFNFNEPKLKSIIEDAAGMGFELFLLDDGWFGQKHPRNNDDAGLGDWVVNKEKLPNGLGWLVKQCTDNDIKFGIWVEPEMVNPQSELFEKHPDWVIQQPEREHILFRRQLVLDLSNPEVQEFVYKSVHDILKDNPQIAFVKWDCNRAVTNPGSTYLPADEQSHIWIEYGRGLLNVFKKVRDSHPDVHFMLCSGGGGRLDYGSLRYFEEYWPSDNTDALQRILIQWGNSQFFPSIAMCCHVSASPNHQTGRTTPLKFRFDVAMQGALGMDLQPSTMNEKEVIFAKEAIKTYESIRNIVFTGDLYRILSPYEGNRTSMMYVLPDKSRAVFYAYQLKSHIGEVSAPMRFKGLIPDKKYNVKELNIYPGSRAATGSANGQSFSGDFLMNQGLPIGLSGDYSSAVIELEQQ | failed
MLKSGRLNFLKLNINSRLLYSTNPQLTKKVIGIDLGTTNSAVAYIRDSNDKKSATIIENDEGQRTTPSIVAFDVKSSPQNKDQMKTLVGMAAKRQNAINSENTFFATKRLIGRAFNDKEVQRDMAVMPYKIVKCESNGQAYLSTSNGLIQSPSQIASILLKYLKQTSEEYLGEKVNLAVITVPAYFNDSQRQATKDAGKLAGLNVLRVINEPTAAALSFGIDDKRNNGLIAVYDLGGGTFDISILDIEDGVFEVRATNGDTHLGGEDFDNVIVNYIIDTFIHENPEITREEITKNRETMQRLKDVSERAKIDLSHVKKTFIELPFVYKSKHLRVPMTEEELDNMTLSLINRTIPPVKQALKDADIEPEDIDEVILVGGMTRMPKIRSVVKDLFGKSPNSSVNPDETVALGAAIQGGILSGEIKNVLLLDVTPLTLGIETFGGAFSPLIPRNTT | failed
MLKSILKVAVISTIGLSTVACTVNDQRIARYGVGGAAIGALAGTAIAGSTPEAALTGAAVGAIAGSVTGAAVNQQRQQRQRQQRQIVAPHPAMCTYRNRKGQVYSAPCAQKVQTPQLCTYRDGRGVMYQAPCPQRVR | failed
MLKSVNLPVCHSLRNHLAVSSISTTPPSLIIPLLSPIFLRISSSSSNSVILNFSVKASFLVSKILLINLRAGFTGSLILSAGKPPFITSSSKSSIGTTPGVSKSQIFLVSLIICLPFVYPGIGAVPTECFPLSTFIIVLFPTFGYPINATLTLSLLIIFAIFFSSLLRIPVPFLSLAEIKTTGISLFLLYSSAHSLGTKSALFITNKSFLPLSKTILSSFLFLVPMGSLASTTSTTMSASSITSFTIAQAFFCFIPHHRYFKDYGTPWGIRGARVGTLDVGLILGSKPYFFWLHAFSERYYVG | failed
MLKVAIAEDDFRVAQIQEEFLLKIKDVKVMGKALNAKETMELLQREEIDLLLLDNYLPDGIGTDLLPQIHAEFPNVDVIMVTAANENHMLEKAIRNGVSNYLIKPVTLEKFVRTIEDYKRKKQLLHNNNEVNQTLIDNFFGISQTQDIKNLPTGVDPLTLQKVKGIIKGFEEGITIEEMGEQMGASRTTARRYLEYLVATNECTVEYTYGIIGRPERKYRIGRGL | failed
